Test results as given in the supplement of paper PMC10724198.
± gives the standard deviation of the averaged measurements.

Test system: Saccharomyces cerevisiae
Test: protein stability index of tFT-peptide fusion (C-terminal peptide) (PSI (0-1 scale)); higher = more stable (slower turnover)
Details: genetic background: wild type; temperature: 30 C
Protocol: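 Multiplexed protein stability (MPS) profiling in S. cerevisiae. Random 12-aa peptides (tFT-X12 library) are fused to the C-terminus of a sfGFP-mCherry tandem fluorescent timer, after mCherry and a GGGS linker. Cells are FACS-sorted into 8 mCherry/sfGFP bins and deep-sequenced. The protein stability index (PSI) is the read-weighted bin average, scaled from 0 (unstable) to 1 (stable). Only peptides with >10 reads are reported; cells were grown at 30 °C in SC-His with glucose.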
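Note: PSI is a weighted mean of sequencing reads over stability bins, variants kept only with over 10 reads, mCherry proximal and sfGFP distal, peptide attached via GGGS linker.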

Sequence | protein stability index
GLRYGLALARPF | 0.65 ± 0.034
GLSFITAGGLVF | 0.688 ± 0.052
GLSLSLLSSLFV | 0.71 ± 0.02
GLVDVYWVCIIV | 0.6069 ± 0.0046
GLVLILRLFSRG | 0.494 ± 0.056
GLWSWFLCYEFY | 0.657 ± 0.02
GLYDGSRLVKLE | 0.736 ± 0.039
GMFVCGVGVVGG | 0.704 ± 0.19
GMRGGGRAQDAR | 0.6609 ± 0.002
GMRRGGGGCRGW | 0.716 ± 0.033
GMSRVSDRRWGS | 0.681 ± 0.013
GMWVGGRGVVGV | 0.627 ± 0.0076
GNCGLLSLYTLF | 0.503 ± 0.023
GNCPGYSELGRF | 0.6941 ± 0.0044
GNDICLVGARVV | 0.6696 ± 0.0059
GNFYFSGSGFFI | 0.709 ± 0.031
GNGVNLEYDKRK | 0.721 ± 0.059
GNKKEKYNRTSS | 0.683 ± 0.0078
GNLTPHSERLPP | 0.658 ± 0.0084
GNLVKTLERDKP | 0.736 ± 0.034
GNNLCILNERFP | 0.763 ± 0.019
GPCRVSLSFFFF | 0.577 ± 0.06
GPFHSGSASRSA | 0.653 ± 0.047
GPGAVTALGYGR | 0.668 ± 0.015
GPGLSPPYPSPA | 0.704 ± 0.029
GPGSFAPLPPRS | 0.684 ± 0.033

Sequence | protein stability index
GPLPYISLSFSP | 0.7304 ± 0.0028
GPPPRSPAFRSL | 0.695 ± 0.092
GPPPRYLPAFPA | 0.7057 ± 0.0042
GPPSRPPRRTAP | 0.707 ± 0.14
GPRDPSCLLPPL | 0.653 ± 0.013
GPRRVAVAGETS | 0.715 ± 0.037
GPTPHPVPTTCS | 0.69 ± 0.016
GPVQWSLLGGSW | 0.65 ± 0.012
GPVYPGSRPAFT | 0.708 ± 0.092
GPWGGSGGGGVG | 0.628 ± 0.041
GQMDGGMGGKVI | 0.582 ± 0.062
GQNGFVDGGCVL | 0.677 ± 0.0081
GQQETIGLRAHI | 0.681 ± 0.025
GQQLSLRGVVHW | 0.844 ± 0.2
GQSQSGIFRTIF | 0.72 ± 0.024
GQSVYRRWGCLK | 0.68 ± 0.01
GQVATAGDIRVR | 0.69065 ± 0.00026
GQYEPEWKRLYC | 0.64 ± 0.011
GRADWERGMGLV | 0.664 ± 0.021
GRAGEKRGGRRL | 0.66 ± 0.013
GRANLAPVPPPR | 0.685 ± 0.013
GRASAGVLLCDG | 0.659 ± 0.028
GRCQSPRASPSG | 0.584 ± 0.013
GRDTVARSEGDR | 0.712 ± 0.037
GRERASHRGPRN | 0.648 ± 0.0066
GRFGGLLRKVLG | 0.678 ± 0.15

Sequence | protein stability index
GRFGIGLYLCFL | 0.597 ± 0.094
GRGGAGFRGGIE | 0.6707 ± 0.0044
GRGRVGGGGVAV | 0.682 ± 0.042
GRGTGGKGRRGS | 0.693 ± 0.015
GRGVFPRRPYWV | 0.724 ± 0.0086
GRGVGWRACGVV | 0.685 ± 0.018
GRIAGGGGGWRW | 0.648 ± 0.064
GRILGEGWVCVV | 0.663 ± 0.087
GRKAEVRVLHFR | 0.6447 ± 0.0055
GRKKLQKKIEEQ | 0.6783 ± 0.0032
GRLGRHFSVKFL | 0.6584 ± 0.0052
GRLGRMWRCDPR | 0.658 ± 0.032
GRLWVGGSVGGV | 0.669 ± 0.012
GRPRERWGVGVV | 0.6865 ± 0.0023
GRQLSTSRLRSS | 0.674 ± 0.025
GRRAWWQQPDDS | 0.774 ± 0.099
GRRDARTEDVRE | 0.688 ± 0.0049
GRRFWFSNHYNC | 0.628 ± 0.091
GRRKKKNRDKMK | 0.6872 ± 0.004
GRRLSDTSIFSS | 0.679 ± 0.087
GRRRCGGGGEVC | 0.66 ± 0.064
GRRRVSTAPRTT | 0.739 ± 0.056
GRSFRQWRDSGS | 0.718 ± 0.066
GRSGACGWVGFG | 0.7238 ± 0.0013
GRSGGEGGGEEE | 0.681 ± 0.029
GRSHIQPCQDII | 0.75 ± 0.078

Sequence | protein stability index
GRSIKGLLYQSL | 0.681 ± 0.025
GRSKKGTISMNS | 0.67 ± 0.0077
GRTAEKGHPPRG | 0.7 ± 0.073
GRTGRSVGTGVR | 0.662 ± 0.025
GRTSTVRSLVFT | 0.666 ± 0.026
GRTYWDCYFPRP | 0.778 ± 0.061
GRVRGRGEGPVA | 0.675 ± 0.049
GRWFGGRGVGEG | 0.635 ± 0.013
GRWGVMKGEEDV | 0.737 ± 0.032
GRWSDSSVVTLG | 0.679 ± 0.018
GRYDARNYIRGK | 0.745 ± 0.14
GRYGPTIPRGEP | 0.696 ± 0.017
GSAGGGLLCGCP | 0.657 ± 0.008
GSAVLFEFTLKM | 0.651 ± 0.053
GSDIIGSRDGWL | 0.67 ± 0.039
GSFGFGVTVVFW | 0.5563 ± 0.0021
GSGAFSLVSSYF | 0.656 ± 0.017
GSGALGAGRASR | 0.723 ± 0.017
GSGRVVGSWSVL | 0.661 ± 0.045
GSGVFEASAWGA | 0.679 ± 0.0069
GSGVSDWRCFEG | 0.627 ± 0.071
GSGVVVEGFLPD | 0.65 ± 0.021
GSGWRLLLGLVR | 0.5731 ± 0.0022
GSIWVVGGGQGV | 0.731 ± 0.048
GSLWGVFFRGLL | 0.647 ± 0.037
GSMWCLTPSAGL | 0.7 ± 0.034

Sequence | protein stability index
GSQCPVLEQQRD | 0.655 ± 0.018
GSRALYCIVPRF | 0.661 ± 0.053
GSRVEVGLGVRC | 0.712 ± 0.027
GSSAPSYTIGPE | 0.682 ± 0.017
GSSAVGGGGVWW | 0.819 ± 0.1
GSSVGVAGLRGR | 0.656 ± 0.029
GSSVSSVWGGVG | 0.629 ± 0.022
GSTSWAWITLPH | 0.747 ± 0.0077
GSVGSFIVVVHF | 0.552 ± 0.013
GSVMDMTRGGVS | 0.646 ± 0.097
GSVSLLASLMCS | 0.55596 ± 0.00023
GSWGRPAGFSRR | 0.651 ± 0.028
GSWGVGLGKVHW | 0.752 ± 0.022
GTALLSGGVLVI | 0.689 ± 0.11
GTATINQISSPQ | 0.673 ± 0.028
GTEFIIDIQIFV | 0.547 ± 0.02
GTETFHDASIGI | 0.653 ± 0.016
GTGEMNDKDQEE | 0.798 ± 0.12
GTKEYKKNRKII | 0.653 ± 0.03
GTQPAAGNTPWA | 0.703 ± 0.029
GTSPSSVRPLCG | 0.7043 ± 0.0069
GTTHRSKRLRRK | 0.768 ± 0.035
GTVEGAVQGLVE | 0.718 ± 0.045
GTVRGVVRGRGG | 0.664 ± 0.012
GTVSEGAMSVGF | 0.809 ± 0.11
GTVWQSNSGAAT | 0.68 ± 0.028

Sequence | protein stability index
GTWAGGGWSCES | 0.696 ± 0.039
GTYNIGVFAPEN | 0.653 ± 0.032
GVACEGRGGRCW | 0.689 ± 0.012
GVANSPTVRERT | 0.666 ± 0.018
GVCASGAGSVGG | 0.662 ± 0.029
GVCLQGRRASGE | 0.693 ± 0.091
GVCQSEKSARGI | 0.664 ± 0.05
GVDGLLRVYVME | 0.674 ± 0.029
GVEGASVLGWGR | 0.704 ± 0.19
GVGAPRLPPRPG | 0.696 ± 0.012
GVGEWRSGVGVG | 0.592 ± 0.043
GVGFGWGGVWME | 0.691 ± 0.0073
GVGGEGRNDALI | 0.635 ± 0.037
GVGGEIGRGGEY | 0.676 ± 0.035
GVGGEPDLADWG | 0.762 ± 0.023
GVGGGGCVLVRG | 0.723 ± 0.018
GVGGGGIGVGMG | 0.7262 ± 0.0018
GVGGPLRPGPCQ | 0.758 ± 0.24
GVGGVARGERIP | 0.678 ± 0.0085
GVGLSGEGGLGR | 0.642 ± 0.015
GVGQGGPVVVGR | 0.665 ± 0.024
GVGREGGCWRTG | 0.702 ± 0.11
GVGRPSDGPFRA | 0.666 ± 0.047
GVGSCVILRLRN | 0.557 ± 0.02
GVGWGDVWGCGE | 0.741 ± 0.038
